The supplement of paper PMC6757056
± gives the standard deviation of the averaged measurements.

B1: library; a variant is named by its letters at N, in order (parent)
chain: GCUGUCACCGAGAAACUGUGAAGUAUAUCUUAAACCUGGGCACUUAAAAGAUAUAUGGAGUUAGUAGUGCAACCUGCUCGGUCUGAUGAGUCCNNNNNNGGACGAAACAGC

What was measured:
cyclic di-GMP [1] = variants of: B1; assay: FACS-Seq fitted mean relative fluorescence mCherry/BFP without ligand (log10 relative fluorescence); HEK293T; ligand: cyclic di-GMP (c-di-GMP-II aptamer); higher = higher reporter protein expression; conditions: ligand present: no
Procedure, shortened: (§1)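 Fluorescence figures are normalized fitted normal means of sequenced bin counts. Enriched, lentivirally transduced HEK293T libraries with a ribozyme-switch mCherry reporter and EF1α-BFP were held 48 h with or without ligand, then sorted into 6 mCherry/BFP bins. PCR-amplified, barcoded genomic DNA from each bin was sequenced on MiSeq. Means of log10(mCherry/BFP) were scaled to five spiked-in control ribozymes.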

cyclic di-GMP [2] = variants of: B1; assay: normalized RNA/DNA level without ligand (relative to sTRSVctl = 100) (log10 (% of sTRSVctl)); HEK293T; ligand: cyclic di-GMP (c-di-GMP-II aptamer); higher = less ribozyme self-cleavage, higher mRNA level; conditions: reporter: mCherry (pCS4076), ligand present: no
Procedure, shortened: (§2)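 RNA level was computed as RNA reads over DNA reads divided by a spiked-in non-cleaving sequence or by the top sequences, then scaled and log-transformed. Scaling was ×100 with log10, the top group was 25 sequences, and the threshold was ≥100 DNA reads. The reads came from HEK293T cells transfected at 4 µg per 6-well well with ribozyme switch library plasmids (mCherry, or eGFP in some ligand experiments). Total RNA was extracted with EDTA 72 h after transfection, with any ligand added 1 h before it.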

cyclic di-GMP [3] = variants of: B1; assay: FACS-Seq fitted mean relative fluorescence mCherry/BFP with ligand (log10 relative fluorescence); HEK293T; ligand: cyclic di-GMP (c-di-GMP-II aptamer); ligand concentration (+) FACS-Seq: 1 mM; higher = higher reporter protein expression; conditions: ligand present: yes
Procedure, shortened: as §1

cyclic di-GMP [4] = variants of: B1; assay: normalized RNA/DNA level with ligand (relative to sTRSVctl = 100) (log10 (% of sTRSVctl)); HEK293T; ligand: cyclic di-GMP (c-di-GMP-II aptamer); ligand concentration (+) RNA-Seq: 1 mM; higher = less ribozyme self-cleavage, higher mRNA level; conditions: reporter: mCherry (pCS4076), ligand present: yes
Procedure, shortened: as §2

Variant	FACS-Seq fitted mean (log10) (cyclic di-GMP [1])	normalized RNA/DNA level without ligand (log10) (cyclic di-GMP [2])	FACS-Seq fitted mean (log10) (cyclic di-GMP [3])	normalized RNA/DNA level with ligand (log10) (cyclic di-GMP [4])
GCUGUCACCGAGAAACUGUGAAGUAUAUCUUAAACCUGGGCACUUAAAAGAUAUAUGGAGUUAGUAGUGCAACCUGCUCGGUCUGAUGAGUCCACCUAAGGACGAAACAGC [ACCUAA]	-0.281 ± 0.029	1.57 ± 0.053	0.102 ± 0.075	1.76 ± 0.056
GCUGUCACCGAGAAACUGUGAAGUAUAUCUUAAACCUGGGCACUUAAAAGAUAUAUGGAGUUAGUAGUGCAACCUGCUCGGUCUGAUGAGUCCAUUCCAGGACGAAACAGC [AUUCCA]	-0.182 ± 0.1	1.7 ± 0.044	-0.0711 ± 0.041	1.88 ± 0.14
GCUGUCACCGAGAAACUGUGAAGUAUAUCUUAAACCUGGGCACUUAAAAGAUAUAUGGAGUUAGUAGUGCAACCUGCUCGGUCUGAUGAGUCCAUUCCCGGACGAAACAGC [AUUCCC]	-0.55 ± 0.097	1.8 ± 0.045	-0.405 ± 0.018	1.89 ± 0.11
GCUGUCACCGAGAAACUGUGAAGUAUAUCUUAAACCUGGGCACUUAAAAGAUAUAUGGAGUUAGUAGUGCAACCUGCUCGGUCUGAUGAGUCCCAAAACGGACGAAACAGC [CAAAAC]	-0.495 ± 0.03	1.58 ± 0.055	-0.278 ± 0.08	1.77 ± 0.14
GCUGUCACCGAGAAACUGUGAAGUAUAUCUUAAACCUGGGCACUUAAAAGAUAUAUGGAGUUAGUAGUGCAACCUGCUCGGUCUGAUGAGUCCCGUACUGGACGAAACAGC [CGUACU]	-0.584 ± 0.039	1.43 ± 0.087	-0.327 ± 0.022	1.66 ± 0.12
GCUGUCACCGAGAAACUGUGAAGUAUAUCUUAAACCUGGGCACUUAAAAGAUAUAUGGAGUUAGUAGUGCAACCUGCUCGGUCUGAUGAGUCCCGGUAAGGACGAAACAGC [CGGUAA]	-0.662 ± 0.021	1.19 ± 0.052	-0.41 ± 0.069	1.28 ± 0.087
GCUGUCACCGAGAAACUGUGAAGUAUAUCUUAAACCUGGGCACUUAAAAGAUAUAUGGAGUUAGUAGUGCAACCUGCUCGGUCUGAUGAGUCCAUGGGUGGACGAAACAGC [AUGGGU]	-0.563 ± 0.083	1.54 ± 0.072	-0.3945 ± 0.00061	1.74 ± 0.07
GCUGUCACCGAGAAACUGUGAAGUAUAUCUUAAACCUGGGCACUUAAAAGAUAUAUGGAGUUAGUAGUGCAACCUGCUCGGUCUGAUGAGUCCUGCAAUGGACGAAACAGC [UGCAAU]	-0.335 ± 0.12	1.66 ± 0.045	-0.151 ± 0.047	1.81 ± 0.089
GCUGUCACCGAGAAACUGUGAAGUAUAUCUUAAACCUGGGCACUUAAAAGAUAUAUGGAGUUAGUAGUGCAACCUGCUCGGUCUGAUGAGUCCAAUUAAGGACGAAACAGC [AAUUAA]	-0.5829 ± 0.0026	1.51 ± 0.063	-0.251 ± 0.11	1.72 ± 0.074
GCUGUCACCGAGAAACUGUGAAGUAUAUCUUAAACCUGGGCACUUAAAAGAUAUAUGGAGUUAGUAGUGCAACCUGCUCGGUCUGAUGAGUCCACAUUGGGACGAAACAGC [ACAUUG]	-0.689 ± 0.036	1.53 ± 0.024	-0.401 ± 0.11	1.69 ± 0.13
GCUGUCACCGAGAAACUGUGAAGUAUAUCUUAAACCUGGGCACUUAAAAGAUAUAUGGAGUUAGUAGUGCAACCUGCUCGGUCUGAUGAGUCCAAGGUUGGACGAAACAGC [AAGGUU]	-0.341 ± 0.089	1.59 ± 0.022	-0.152 ± 0.091	1.8 ± 0.1
GCUGUCACCGAGAAACUGUGAAGUAUAUCUUAAACCUGGGCACUUAAAAGAUAUAUGGAGUUAGUAGUGCAACCUGCUCGGUCUGAUGAGUCCUCAGAUGGACGAAACAGC [UCAGAU]	-0.378 ± 0.029	1.49 ± 0.067	-0.0266 ± 0.08	1.67 ± 0.078
GCUGUCACCGAGAAACUGUGAAGUAUAUCUUAAACCUGGGCACUUAAAAGAUAUAUGGAGUUAGUAGUGCAACCUGCUCGGUCUGAUGAGUCCGCGCUCGGACGAAACAGC [GCGCUC]	0.151 ± 0.12	1.45 ± 0.13	0.324 ± 0.017	1.62 ± 0.17
